Source: US20240279318A1
Numbering of substitutions follows the chain as printed.

Key:
[1] = molecular target: other peptide-loaded T2 cells; test: cell-based or functional assay
[2] = molecular target: group 3: OR1I1, OR51B6, OR6C1, ATG9A, RP1 and NR2E1 homologous peptide/HLA-A*02:01 complexes (mixed); test: SPR (BIAcore T200), crude scFv captured, mixed complexes flowed over
[3] = molecular target: group 2: CDC14A, PTP4A1, BRCA2 and RCL1 homologous peptide/HLA-A*02:01 complexes (mixed); test: as above
[4] = molecular target: group 1: ZNF566 and ARNTL homologous peptide/HLA-A*02:01 complexes (mixed); test: as above
[5] = molecular target: AFP158 homologous peptides/HLA-A*02:01 complexes; test: SPR, crude scFv captured, complexes as analyte

B1: AS167821A-AS167821A-TCE-KIH (bispecific antibody, human IgG1, kappa, L234A L235A)
heavy: EVQLVESGGGLVQPGRSLRLSCAASGFTFDDYAMHWVRQAPGKGLEWVSGISWNSGSIGYADSVKGRFTISRDNAKNSLYLQMNSLRAEDTALYYCAKDSRGYGDYRLGGAYWGQGTLVTVSSASTKGPSVFPLAPSSKSTSGGTAALGCLVKDYFPEPVTVSWNSGALTSGVHTFPAVLQSSGLYSLSSVVTVPSSSLGTQTYICNVNHKPSDTKVDKKVEPKSCDKTHTCPPCPAPEAAGGPSVFLFPPKPKDTLMISRTPEVTCVVVDVSHEDPEVKFNWYVDGVEVHNAKTKPREEQYNSTYRVVSVLTVLHQDWLNGKEYKCKVSNKALPAPIEKTISKAKGQPREPQVYTLPPSREEMTKNQVSLWCLVKGFYPSDIAVEWESNGQPENNYKTTPPVLDSDGSFFLYSKLTVDKSRWQQGNVFSCSVMHEALHNHYTQKSLSLSPGK
light: not shown
chain: QVRLVESGGGSVQAGGSLRLSCAASGRTYSTYAMGWFRQAPGKEREGVATIYIGSGRTYYVDSVKGRFTISQDNAKNTLYLQMNNLKPEDTAMYYCTADVDPYESSWSRGLGYWGQGTQVTVSSGGGGSGGGGSGGGGSGGGGSGGGGSQVRLVESGGGSVQAGGSLRLSCAASGRTYSTYAMGWFRQAPGKEREGVATIYIGSGRTYYVDSVKGRFTISQDNAKNTLYLQMNNLKPEDTAMYYCTADVDPYESSWSRGLGYWGQGTQVTVSSEPKSSDKTHTCPPCPAPEAAGGPSVFLFPPKPKDTLMISRTPEVTCVVVDVSHEDPEVKFNWYVDGVEVHNAKTKPREEQYNSTYRVVSVLTVLHQDWLNGKEYKCKVSNKALPAPIEKTISKAKGQPREPQVYTLPPSREEMTKNQVSLSCAVKGFYPSDIAVEWESNGQPENNYKTTPPVLDSDGSFFLVSKLTVDKSRWQQGNVFSCSVMHEALHNRYTQKSLSLSPGK
T cell redirected cell killing (LDH), 1 nM BsAb [1]: < 20%

B2: AS170036 VL1VH1 (scFv)
scFv: QSALTQPRSVSGSPGQSVTISCAGTSSDVGSENYVSWYQQHPGKAPKLMIYQVNKRASGVPDRFSGSKSGNTASLTISGLQAEDEADYYCASYRSSDHNIVFGGGTKLTVLGGGGSGGGGSGGGGSEVQLVESGGGLVQPGGSLRLSCAASGFTFSSYAMSWVRQAPGKGLEWVSTINSGTGSPYYADSVKGRFTISRDNSKNTLYLQMNSLRAEDTAVYYCAKNFFDGSWFLGPPAMDYWGQGTLVTVSSHHHHHH
SPR binding level [2]: 0.2 RU | SPR binding level [3]: 0.4 RU | SPR binding level [4]: 0.8 RU

B3: AS170036 VL1VH1-VLH98F (scFv)
scFv: B2 scFv with H98F
SPR response [5]: < 3.5 RU

B4: 05-AS170036 VL1VH1-56N98I (scFv)
scFv: B2 scFv with H98I, G182N
SPR binding level [2]: 2 RU | SPR binding level [3]: 7 RU | SPR binding level [4]: 4.4 RU

B5: 22-AS170036 VL1VH1-57H108A (scFv)
scFv: B2 scFv with S183H, G234A
SPR binding level [2]: 5.7 RU | SPR binding level [3]: 10 RU | SPR binding level [4]: 26.6 RU

B6: 75-AS170036 VL1VH1-57K98Q108S (scFv)
scFv: B2 scFv with H98Q, S183K, G234S
SPR binding level [2]: 3.9 RU | SPR binding level [3]: 14.3 RU | SPR binding level [4]: 22.6 RU

B7: 19-AS170036 VL1VH1-56N108A (scFv)
scFv: B2 scFv with G182N, G234A
SPR binding level [2]: 2.6 RU | SPR binding level [3]: 7.5 RU | SPR binding level [4]: 5 RU

B8: 40-AS170036 VL1VH1-56Y98F108A (scFv)
scFv: B2 scFv with H98F, G182Y, G234A
SPR binding level [2]: 9.5 RU | SPR binding level [3]: 79.2 RU | SPR binding level [4]: 13.8 RU

B9: AS170036 VL1VH1-VLH98Q (scFv)
scFv: B2 scFv with H98Q
SPR response [5]: < 3.5 RU

B10: 16-AS170036 VL1VH1-56Y108A (scFv)
scFv: B2 scFv with G182Y, G234A
SPR binding level [2]: 3.2 RU | SPR binding level [3]: 32.6 RU | SPR binding level [4]: 4.5 RU

B11: 48-AS170036 VL1VH1-56Y98Q108S (scFv)
scFv: B2 scFv with H98Q, G182Y, G234S
SPR binding level [2]: 6.1 RU | SPR binding level [3]: 56.6 RU | SPR binding level [4]: 9.3 RU

B12: AS170036 VL1VH1-VHS57K (scFv)
scFv: B2 scFv with S183K
SPR response [5]: < 3.5 RU

B13: AS170036 VL1VH1-VHG56N (scFv)
scFv: B2 scFv with G182N
SPR response [5]: < 3.5 RU

B14: 70-AS170036 VL1VH1-57K98I108A (scFv)
scFv: B2 scFv with H98I, S183K, G234A
SPR binding level [2]: 5.8 RU | SPR binding level [3]: 21.9 RU | SPR binding level [4]: 33.7 RU

B15: 03-AS170036 VL1VH1-56Y98Q (scFv)
scFv: B2 scFv with H98Q, G182Y
SPR binding level [2]: 2.4 RU | SPR binding level [3]: 27.2 RU | SPR binding level [4]: 4 RU

B16: AS170036 VL1VH1-VHG108S (scFv)
scFv: B2 scFv with G234S
SPR response [5]: < 3.5 RU

B17: AS170036 VL1VH1-VHG108D (scFv)
scFv: B2 scFv with G234D
SPR response [5]: < 3.5 RU

B18: AS170036 VL1VH1-VHS57H (scFv)
scFv: B2 scFv with S183H
SPR response [5]: < 3.5 RU

B19: 49-AS170036 VL1VH1-56N98F108A (scFv)
scFv: B2 scFv with H98F, G182N, G234A
SPR binding level [2]: 6.5 RU | SPR binding level [3]: 21.1 RU | SPR binding level [4]: 15.3 RU

B20: AS170036 VL1VH1-VHS57M (scFv)
scFv: B2 scFv with S183M
SPR response [5]: < 3.5 RU

B21: 42-AS170036 VL1VH1-56Y98F108S (scFv)
scFv: B2 scFv with H98F, G182Y, G234S
SPR binding level [2]: 4.4 RU | SPR binding level [3]: 39.3 RU | SPR binding level [4]: 6.3 RU

B22: 82-AS170036 VL1VH1-57M98Q108A (scFv)
scFv: B2 scFv with H98Q, S183M, G234A
SPR binding level [2]: 4.7 RU | SPR binding level [3]: 16.6 RU | SPR binding level [4]: 28.2 RU

B23: 25-AS170036 VL1VH1-57K108A (scFv)
scFv: B2 scFv with S183K, G234A
SPR binding level [2]: 2 RU | SPR binding level [3]: 6.3 RU | SPR binding level [4]: 10.9 RU

B24: 27-AS170036 VL1VH1-57K108S (scFv)
scFv: B2 scFv with S183K, G234S
SPR binding level [2]: 1.3 RU | SPR binding level [3]: 3.3 RU | SPR binding level [4]: 6.1 RU

B25: 67-AS170036 VL1VH1-57K98F108A (scFv)
scFv: B2 scFv with H98F, S183K, G234A
SPR binding level [2]: 6.3 RU | SPR binding level [3]: 22.3 RU | SPR binding level [4]: 35.8 RU

B26: AS170036 VL1VH1-VLH98I (scFv)
scFv: B2 scFv with H98I
SPR response [5]: < 3.5 RU

B27: 43-AS170036 VL1VH1-56Y98I108A (scFv)
scFv: B2 scFv with H98I, G182Y, G234A
SPR binding level [2]: 17.3 RU | SPR binding level [3]: 148 RU | SPR binding level [4]: 25.7 RU

B28: 10-AS170036 VL1VH1-57K98F (scFv)
scFv: B2 scFv with H98F, S183K
SPR binding level [2]: 1 RU | SPR binding level [3]: 4 RU | SPR binding level [4]: 6.8 RU

B29: 45-AS170036 VL1VH1-56Y98I108S (scFv)
scFv: B2 scFv with H98I, G182Y, G234S
SPR binding level [2]: 6 RU | SPR binding level [3]: 64.7 RU | SPR binding level [4]: 9 RU

B30: AS170036 VL1VH1-VHG108A (scFv)
scFv: B2 scFv with G234A
SPR response [5]: < 3.5 RU

B31: 15-AS170036 VL1VH1-57M98Q (scFv)
scFv: B2 scFv with H98Q, S183M
SPR binding level [2]: 1.2 RU | SPR binding level [3]: 2.8 RU | SPR binding level [4]: 5.1 RU

B32: 34-AS170036 VL1VH1-98I108A (scFv)
scFv: B2 scFv with H98I, G234A
SPR binding level [2]: 3.6 RU | SPR binding level [3]: 11.2 RU | SPR binding level [4]: 10.2 RU

B33: AS170036 VL1VH1-VHG56Y (scFv)
scFv: B2 scFv with G182Y
SPR response [5]: < 3.5 RU
